For two molecules, inhibition and Km results are on record in publication PMC10331486, “Characterization of an evolutionarily distinct bacterial ceramide kinase from Caulobacter crescentus” (The Journal of Biological Chemistry, 2023).

Data set [1] deals with T1, CpgB (CCNA_01218), bacterial ceramide kinase (Caulobacter vibrioides, UniProt A0A0H3C600).
T1 construct: full-length gene, N-terminal His tag (pET28a NdeI/EcoRI), expressed in E. coli BL21(DE3), HisTrap purified, soluble; tag removal not mentioned
T1 sequence (A0A0H3C600 1-330): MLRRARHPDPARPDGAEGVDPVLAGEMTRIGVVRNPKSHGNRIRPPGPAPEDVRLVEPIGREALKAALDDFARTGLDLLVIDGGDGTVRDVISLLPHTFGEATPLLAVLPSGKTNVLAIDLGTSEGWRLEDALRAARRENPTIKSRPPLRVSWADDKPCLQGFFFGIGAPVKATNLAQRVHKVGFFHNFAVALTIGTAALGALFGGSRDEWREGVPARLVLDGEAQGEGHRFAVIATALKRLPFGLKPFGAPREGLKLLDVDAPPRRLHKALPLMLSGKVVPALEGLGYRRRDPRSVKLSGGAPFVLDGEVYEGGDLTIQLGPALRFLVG
In words: NBD-ceramide kinase assay, TLC fluorescence imaging. It is filed as biochemical. The settings on record: read-out: % inhibition at 300 nM.

Substrate in data set [2]: CCCCCCCCCCCCC/C=C/[C@@H](O)[C@H](CO)NC(=O)CCCCCNc1ccc([N+](=O)[O-])c2nonc12
Described as above. In kind it is biochemical, Caulobacter vibrioides. The settings on record: 1 mM ATP fixed, 15 mM Mg2+, 20 mM Hepes pH 7.4, 30 °C, labelled compound (fluorescent NBD).

Substrate in data set [3]: Nc1ncnc2c1ncn2[C@@H]1O[C@H](COP(=O)(O)OP(=O)(O)OP(=O)(O)O)[C@@H](O)[C@H]1O
In words: purified protein. The settings on record: 160 μM NBD-C6-ceramide fixed, 15 mM Mg2+, 20 mM Hepes pH 7.4, 30 °C.

By inhibition is commonly meant the change of the read-out against control, counted positive when it falls. As usually defined, the Km is the concentration of substrate that gives half-maximal velocity.

Turning to `O=C(Nc1nc2ccc(NC(=O)C34CC5CC(CC(C5)C3)C4)cc2s1)c1ccccc1` [NVP-231], in data set [1], the inhibition at 0.3 µM lay within 20 to 25%.

B1: CpgB (CCNA_01218), bacterial ceramide kinase (Caulobacter vibrioides NA1000) (protein)
chain: MLRRARHPDPARPDGAEGVDPVLAGEMTRIGVVRNPKSHGNRIRPPGPAPEDVRLVEPIGREALKAALDDFARTGLDLLVIDGGDGTVRDVISLLPHTFGEATPLLAVLPSGKTNVLAIDLGTSEGWRLEDALRAARRENPTIKSRPPLRVSWADDKPCLQGFFFGIGAPVKATNLAQRVHKVGFFHNFAVALTIGTAALGALFGGSRDEWREGVPARLVLDGEAQGEGHRFAVIATALKRLPFGLKPFGAPREGLKLLDVDAPPRRLHKALPLMLSGKVVPALEGLGYRRRDPRSVKLSGGAPFVLDGEVYEGGDLTIQLGPALRFLVG
notes: full-length gene, N-terminal His tag (pET28a NdeI/EcoRI), expressed in E. coli BL21(DE3), HisTrap purified, soluble; tag removal not mentioned
As for B1, the results for the Km in data set [2] and in data set [3] were 19.2 ± 5.5 µM and 290 ± 70 µM, respectively.
